Reference: patent publication US20230226096A1 (Orna Therapeutics, Inc., priority 2020, published 2023)

B1: Chicken calicivirus (nucleic acid)
DNA: GGTGCATCATCACTGAACACCCTCGGGCAGAGATGCAAGGGTGGAAGTCACTCCTGCCCCCTGGCAACATGCAGGTGCCCGATCCCAAGCTTAGTTCTGACTTCCTCTCCTGGGTGGTGCAACACTCCAAGGTTGATGAACAAACCTGGAGGGACCTCTGGGCAACCTGGTCTCTCGAGGATCTCCGGCGCATCTCCACAGACTACCTCATGCTCCCGGAACCTGAGAAGAACACTGATGCCTATGATGGCTGGCTGATGGTCGGCGAGATGTTGACCTTTGCCGGTCTCATTGGCTGGGAGG
B2: Chicken picornavirus 3 (nucleic acid)
DNA: GGGTATGGTGGTTAACCCCGTCCACTGGGCATCTTTGCCCTCTCAGAAGTGGATCAATCCACCCCAACTCCCCCCCTGGTTACCTGAGCCACAGTGGACTCCGGTGACGAAGCTAGGGACCCCAATACCTCAAGTGCCAAGAGAGTCCCCCCCTCGCGAGAGGTGCTCTTGGGCCCAAAAGGCTAGTTGGCAGAGTGAAGTGAAGGAAGCTGCTAACGTGGTGACCTTAAGCGTAATTCGAAGCTGACCTTTGAGGTTAACCCTAGTGGACCACTGGAGGAATCTGTGGAGGTGGTGGTTAGGAAAGTTGGCCACTTGTGAGTAGATGCCCAGAAGGCATAAGGCTGATCTGGGGCCAGTGACTATACCGTTCCGGTAAACCTGGTATAAAAACCATGAAAGCAAGTGGGTGAAATTTTCTCTTTTTATCCTTCATTCAGCAGTTGATATTGGCAAA
B3: Poecivirus BCCH-449 (nucleic acid, listed as Poecivirus sp.)
DNA: ACTACACAATCGCAACACGCGCAAGTTTGTAGTTTGATTGGCGTGCAAATGTCAAATCAAGCATATAACACAATTTGGTGGCTGTTGGTGTTTGTTATAGGAATTTTGGTTGTGTTGAAATTGTGGATGTGTAGGAAATATGCACAATTACGTCAGCGTCAGGAGTTTTATAACCTGGCGCAACACCAAAATGGTCTTCGCGCTTTAACATCACCAGCGAGGTGTAAACAAATTGAAGTTGAATTAGATCGTGTATAGGCCAGGGAACCATCCCTCCCAACGCCACATCTTGTGGGGAAGTTGGGATAATGGTGGGTCTATATGAATTGGTCTGTAGACCCACAGTGAAGAGTGAATAGTATGCTTGCGGTTCCATTTGTTAATGGTCTAGCATGGGTGGGGGCGGCAACCCCGTGAGGGGTTCCCCACTGGCCAAAAGCCCAGGGGTTAGTCATTTCAACCAAGGAAGCTGGTAACCTGGTGACCTGAACTTGAGTGGTGAGACCCCCTTGCTAGAGTGTGTAAACCGATTGTAAGCATTTTGTTTGCTTAGTATCTGTGGTATAAGCAGTCAATTTTGTATAGGCTCAAGGCTGTGGTAGTTAGTAGATGCCCGGAAGGTTATTACTGATCCGGGGACCGTGACTATACATTAGGTAAACCGGTTTAAAAACC
B4: Cripavirus (nucleic acid, listed as Cripavirus sp.)
DNA: GCAAAATCGGTAGTACGTTAAACGTACGACCACCGATGAGACTGAAATGACACTAGTTGAGATTATTTCAATATCCTAGTGTTATAAAGTCAATATTTGTTGGTTGATCGTTTCGTCAATCGATGGCGCTGACAGCCGGAAAGACGGCAATAATAAAAACCAAGATTTAGTTTTTAAGTTTTGATTGAATTGCAAAAGCTATCTTGAATAGACAATCAAAATATTAAGTAAAGCAAAAGCTTCTTAAAGAAGACAATATTTAATTAGTTAGTAACCAAACCTCATCGTGCCCCTAAGGGTTAACCGGTTACGTAAAAGCGTAGAGGTATTAAGGTCACTGCGGAGACCTAAAATCCGCAATTTTATGTTTTGTAATGTTTTAGTTATAGACTTAGATGTAACTATAAGAGTTTATAAATACTTGTTTCAAGATTTATAGACAAGATCTGATCCTATGGATTTTAGATAACCTTCATGTTAGTGGATAGTGTGTGTACCTATCTAAACGCATAAGGCTCTTATTTCATATTTAAAGTAGGACTATGTATTACGGCGCATCTAACGGTAACGTTAGTCAAGACCGGAGAATCTCGGAATGAATTTTAGTAATTCCCAAATTTATA
B5: Chicken orivirus 1 (nucleic acid, listed as Orivirus sp.)
DNA: AAACCCTCACGAGTGCTTGTGGTAGGTCCCAGGCCAATATTCTTCGTAAGGCTTGGTTCCAATTTTCCACCACTCGTGTTTGGGTTCTGGCCTATGGTACCCAGAGGGGCGGTTTGGGGGAATTAACTCCCCCTCCCCTGTGGTCCTATACCACCCCACACCTCTGTGGGCTTTCTTTACTATCTTCTTGTTTTCCGACTTTTAAACACTAGGCAGGCGCGCCTAGTCATACACCGCCCGGCTGGTCTTTCCAGCTCTTGTGGGCGGTGCGCGCTGGTCCATCGTGCCCAGCGACATAGCACCTTGTGGACACCTCCGAACGCCCTCCCCTGTATGGGGTGGTGCCCAGGGGTTTCAGTGTGGTGACACACTCCCTGGGGCCCGAAAGGCTAGTGTGCAACAGGTGAGGTACAGCCAGCTGCCCCCGTGGCTGGAGGGACCAAGCTTGTGAAGCACACCTCACCTTCTTGGGGGTGGGCTAGTAAGTGGTGAAAGCATAGTGTCCGTGTCGCTGGCCAACACTTTGGGTCAAGTCCAGCCACTCAGTGAGTAGATGCCCAGGAGGTACCCCTAGTGGATCTGACTTGGGGCCTGTTACTTAATGCAGGTTAAAAACTATGAAAGCTGAGTAGTGTAGCCCGGCTGGTGGCTTCTCTTCCTTATTCATTCTATTTT
B6: Chicken gallivirus 1 (nucleic acid, listed as Gallivirus sp.)
DNA: GGTTAACTTGTTTAACCAAGGCTTCCGTGCAGGGCTTGCACGTTAGGAGTTCATGTTGATTCATGCTCCAATGCCCAAAACTTTGTGTGTTTGTTTATGTCTTTCCCAAAGTTTCCCCCAAGGTTTCGGTACTCAAACCTTAATTCCTAGTCCCATCTTTTGGGCCTTAGTATCTAGGAAATGTACCCGTGCCTTGACGAACGTAAGAAAGCTGTCTTTTATTGAACGGTTCTAATGAACTAAGTATAACTGGCTCGCGCCACCTGGTGTGTGCCGTTGGAATTCCCCCATGGTAACATGGTCCAACGGGCCCGAAAGGCTAGTGGGCAATCGGTCCTCCAAGGAAGGGGTTCCCACCCCGACCTGAACAGGATTTGATGAAGCTCACCTCCCAGGCTCCTAACCCCAAGGAAGTTTACTTATAGTAATTAGAATTTAGTATGTAATTGCTGGCAATCTTGCTAGTAGTCAGGAACGTTATGACCAAATGAGTAGACCCCCAGAAGGTACCCCATTATATGGGATCTGATCTGGGCCTCATACTGTGTGTCTCCCCACATATGAGGTTAAAACCATGAAAGTTTGGTCCAAAATATTCTTTTCCTTTTATCTTTTCTTTAGTGGTGACGCCATTATATCAGCAGTTTGCTG
B7: Coronavirus AcCoV-JC34 (nucleic acid)
DNA: AGAAACAAGTAGTGTTTTAAAAACCTTCAAATTAGTGCCTGTAACATCTTTGCAATGAAAGTAGCGCTCACTAGCCTCTATGCAAAGAATGTTAAAAGAAATACGAAGCATTTAAAGAATACAATCTATCTAGGATAGGTACAATTCTCCTCCCCCTCTTGACTTCGGTCAACTCAACTCAACTAAACGAAATCCCCCTTGCATGGTTCCGACCCGTGTAAGGTTGTGTATTTCGTGCAGTCGTTGCCCTTACTAGTGTAAGCGTAACGGCATCTAGGTTTGCACGTCTTGGAGGAAACGGTGTGTACGTTTCTAGTGTTTACGCCGTATCGGTTCCGGCCCGATAGGTATTGCATTAGACGTCCTGGGTGGTTCTGCCTGCCCTTGTGTGATTCGGCTGTTCCGTCAGTTTGGTCACCTCACACGTCCTTAAGAC
B8: Camel alphacoronavirus (nucleic acid, listed as Alphacoronavirus sp.)
DNA: CTTAAGTGTCTTATCTATCTATAGATAGAAAAGTCGCTTTTTAGACTTTGTGTCTACTCTTCTCAACTAAACGAAATTTTTGCTACGGCCGGCATCTCTGATGCTGGAGTCGTGGCGTAATTGAAATTTCATTTGGGTTGCAACAGTTTGGAAATAAGTGCTGTGCGTCCTAGTCTAAGGGTTCTGTGTTCTGTCACGGGATTCCATTCTACAAACGCCTTACTCGAGGTTCTGTCTCGTGTTTGTGTGGAAGCAAAGTTCTGTCTTTGTGGAAACCAGTAACTGTTCCTA
B9: Chicken picornavirus 1 (nucleic acid)
DNA: GTGGCCGACTTGCAGAACTTCCTACCGAACCACCACCTCACCCCCATAACTCCTTCCCTCTACACCTTCCGCTATGGTGGTTACCACTGCTTTATTGCCTTGACTGAGAATGGCCACCCCCTCGACACCTGCCCCCTACTGCCCCACCGCGCAACCTTTTGCTTGTCCACTCGGTTGGAGAGGCATGGGGGCCCCGTTCATATCCCCAGTCCAGTTGGTGACCTTCCCCCTCCCCGTCCGGTAGATGGTCCAGAGGGCTTTGCCGACGCCCTCTATGATGCTTGCTTGTCTTTCCTCCGTCAGCGCGAGCATGCACTTGTCGAGCCCACGGAAACACAGCCTAGCTTTTGCTTCTCTCACCCTGCGTACCCTGGGCGCCTTCCGCTCGAGATTCGCTTTGTTCGACACCCTGGCGTCCCCCCACCGCTACGTGATTTTACTCGTGGCATACACCGCCCTGGCGTTCAGTACATTCCACTGCCTAATTTGGGTGGCCTCCCTCAATCTCCCGCACCCCCCATTGCGCACGTCATCACCGCCGCCGCTAACGCGATCCGGCGCGGTTCTCACTGGCACTGTCCCCTCGTCCGCCGGGTTTCCACTCATGGTTGGCTTTTCACTTATTCTGGTTACTGGTGTTCCATCCTACTTCATGATGGTCGCCATGACCATGAC
B10: Human coxsackievirus A2 (nucleic acid)
DNA: ACCTTTGTGCGCCTGTTTTATATCCCCACCCCGAGTAAACGTTAGAAGTTACGCAACCCCGATCAATAGTAGGTGTAGCACTCCAGCTGCATCGAGATCAAGCACTTCTGTCTCCCCGGACCGAGTATCAATAGACTGCTAACGCGGTTGAAGGAGAAAACGTTCGTTACCCGGCCAATTACTTCGAGAAGCCCAGTAGTGCCGTGAAAGTTGCGGAGTGTTTCGCTCAGCACTTCCCCCGTGTAGATCAGGCTGATGAGTCACCGCGATCCCCACAGGTGACTGTGGCGGTGGCTGCGTTGGCGGCCTGCCTATGGGGCAACCCATAGGACGCTCTAATACAGACATGGTGCGAAGAGCCTATTGAGCTAATTGGTAGTCCTCCGGCCCCTGAATGCGGCTAATCCTAACTGCGGAGCACATGCCCTCAAACCAGGGGGTGGTGTGTCGTAACGGGTAACTCTGCAGCGGAACCGACTACTTTGGGTGTCCGTGTTTCTTTTTATTCTTATAATGGCTGCTTATGGTGACAATTAAAGAATTGTTACCATATAGCTATTGGATTGGCCATCCGGTGACTAACAAATCGCTCATATACCAGTTTGTTGGTTTTGTTCCCTTATCACATACAGCTCATAACACCCTCTTATATTTACTACAATTGAATAGCAAGAA

What follows are molecules tested on HEK293 cells. Details: luminescence from secreted Gluc in supernatant 24 hours after transfection of HEK293 cells; circular RNA encoding Gluc with the named IRES (UTR truncated to 675 nt).
Type: cell-based, human

First: B1
Second: B2
The Expression of the first is higher: 1.28E+05 for the first, 9.13E+04 for the second.

Going from B3 to B4, the Expression falls from 3.43E+05 to 1.95E+05.

Going from B5 to B6, the Expression rises from 3.16E+05 to 1.51E+07.

Compared with B7, B8 is higher in Expression: 1.82E+05 for the first, 2.48E+05 for the second.

Going from B9 to B10, the Expression rises from 1.21E+05 to 7.75E+07.
